{"source": "patent US20200407435A1", "about": "(Boehringer Ingelheim, published 2020)", "binders": {"B1": {"name": "ANGPT2-opt-13 (humanized) (antibody, human IgG1, kappa, V domains shown)", "VH": "QVQLVQSGAEVKKPGSSVKVSCKASGYIFIDYFINWVRQAPGQGLEWMGKIGPGSGSSSSNEKFKGRVTITADKSTSTAYMELSSLRSEDTAVYYCAREAFDYDGDYYGMAYWGQGTLVTVSS", "VL": "EIVMTQSPATLSVSPGERATLSCKSSQSLLSSGNQKSFLAWYQQKPGQAPRLLIYGASTRETGIPARFSGSGSGTEFTLTISSLQSEDFAVYYCQNDHSYPITFGQGTKLEIKR", "notes": "also called Ang2-opt-13; ANGPT-opt-13"}}, "key": {"rabbit ANGPT2": {"biological_target": "T1, rabbit ANGPT2 (rabbit, UniProt G1T9B3 275-496)", "T1 construct": "domain: FLD domain; also called rabbit ANGPT2 FLD domain", "T1 sequence": "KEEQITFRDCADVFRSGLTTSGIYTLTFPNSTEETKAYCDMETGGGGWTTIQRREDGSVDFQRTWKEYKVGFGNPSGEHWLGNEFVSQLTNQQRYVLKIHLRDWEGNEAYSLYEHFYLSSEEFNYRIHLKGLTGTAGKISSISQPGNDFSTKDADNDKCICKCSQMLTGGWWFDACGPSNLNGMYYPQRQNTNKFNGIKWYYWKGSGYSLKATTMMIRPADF", "test": "SPR (ProteOn XPR36), antibody captured on Protein A/G, rabbit ANGPT2 as analyte", "procedure": "The binding affinity to the various ANGPT2 analytes is determined by surface plasmon resonance (SPR) using a ProteOn XPR36 (Bio-Rad). Unless otherwise stated, all reagents are obtained from Bio-Rad. The running buffer for all assays and dilutions (except where stated) is phosphate buffered saline (PBS)/ethylenediamine tetraacetic acid (EDTA) with 0.01% Tween20 (PBS-T-EDTA). PBS-T-EDTA is prepared by adding 100 μl of 100% Tween20 to 2 L of PBS-T-EDTA with an initial concentration of 0.005% Tween20 to make a final Tween20 concentration of 0.01%. The general linearized model (GLM) sensorchip is normalized, pre-conditioned, and activated with an equal mixture of 1-ethyl-3-[3-dimethylaminopropyl]carbodiimide (EDC)/N-hydroxysulfosuccinimide (s-NHS) in the horizontal direction for 300 sec at a flow rate of 30 μl/min. Immobilization is then is done with Recombinant Protein A/G (Thermo Scientific) (60 μg/ml in 10 mM acetate pH 4.5) in the horizontal direction for 300 sec at a flowrate of 30 μl/min resulting in about 4370-4875 response units (RUs) of Protein A/G on the surface. The sensorchip is then deactivated with 1M ethanolamine HCl in the horizontal direction for 300 sec at a flowrate of 30 μl/min. The sensorchip is stabilized with 18 sec of 0.85% phosphoric acid at a flowrate of 100 μl/min 3 times horizontally and 3 times vertically. […]"}, "[1]": {"biological_target": "T2, Human ANGPT2 Dimer (CC-FLD) (human, UniProt O15123 74-496, limits assumed)", "T2 construct": "domain: CC-FLD; also called ANGPT2 protein with His-tag; not shown: His-tag", "T2 sequence (looked up)": "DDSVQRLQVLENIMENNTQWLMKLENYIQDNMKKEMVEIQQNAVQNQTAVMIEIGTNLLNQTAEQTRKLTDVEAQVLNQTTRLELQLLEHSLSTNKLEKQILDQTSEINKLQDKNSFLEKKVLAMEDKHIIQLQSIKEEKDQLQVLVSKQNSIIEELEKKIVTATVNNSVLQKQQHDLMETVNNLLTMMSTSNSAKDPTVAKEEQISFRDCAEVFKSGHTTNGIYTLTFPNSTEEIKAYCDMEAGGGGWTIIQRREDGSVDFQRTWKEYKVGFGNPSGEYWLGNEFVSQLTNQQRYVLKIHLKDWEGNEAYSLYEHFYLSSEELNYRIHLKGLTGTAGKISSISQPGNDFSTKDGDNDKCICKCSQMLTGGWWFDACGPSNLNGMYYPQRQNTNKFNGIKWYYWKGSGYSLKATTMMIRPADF", "test": "flow cytometry blocking assay: antibody titrated against His-tagged human ANGPT2 dimer (CC-FLD) binding to HEK293 human Tie2 cells", "procedure": "Human ANGPT2 Dimer (CC-FLD) is pre-incubated with the testing antibodies. The ANGPT2/Antibody mixture is then incubated with HEK293 human Tie2 cells at 4° C. After washing, the cells are stained with anti-His-AF647 (from GenScript) for detection of the His-tag on the ANGPT2 protein. The binding of the secondarily labelled ANGPT2 to human Tie2 cells is detected by FLOW cytometry. The average of the duplicate values for each concentration point is used to derive the curve fit graphs. Antibodies that prevent ANGPT2 from binding to the Tie2 cells are considered blocking antibodies. The results are shown in FIGS. 3A-3G and the EC50 values are shown in Table 5 based on the average of duplicate values."}, "[2]": {"biological_target": "T3, human ANGPT2 (SPR analyte) (human, UniProt O15123 275-496, limits assumed)", "T3 construct": "domain: FLD domain; also called HuANGPT2; human ANGPT2 FLD domain", "T3 sequence (looked up)": "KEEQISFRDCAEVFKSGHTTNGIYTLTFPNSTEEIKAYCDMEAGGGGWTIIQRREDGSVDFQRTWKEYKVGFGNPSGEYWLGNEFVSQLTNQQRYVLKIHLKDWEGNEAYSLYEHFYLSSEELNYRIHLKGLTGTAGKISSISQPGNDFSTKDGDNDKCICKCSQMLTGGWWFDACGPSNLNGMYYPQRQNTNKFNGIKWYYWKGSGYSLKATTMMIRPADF", "test": "SPR (ProteOn XPR36), antibody captured on Protein A/G, ANGPT2 as analyte, 1:1 Langmuir fit", "procedure": "(§1) The binding affinity to the various ANGPT2 analytes is determined by surface plasmon resonance (SPR) using a ProteOn XPR36 (Bio-Rad). Unless otherwise stated, all reagents are obtained from Bio-Rad. The running buffer for all assays and dilutions (except where stated) is phosphate buffered saline (PBS)/ethylenediamine tetraacetic acid (EDTA) with 0.01% Tween20 (PBS-T-EDTA). PBS-T-EDTA is prepared by adding 100 μl of 100% Tween20 to 2 L of PBS-T-EDTA with an initial concentration of 0.005% Tween20 to make a final Tween20 concentration of 0.01%. The general linearized model (GLM) sensorchip is normalized, pre-conditioned, and activated with an equal mixture of 1-ethyl-3-[3-dimethylaminopropyl]carbodiimide (EDC)/N-hydroxysulfosuccinimide (s-NHS) in the horizontal direction for 300 sec at a flow rate of 30 μl/min. Immobilization is then is done with Recombinant Protein A/G (Thermo Scientific) (60 μg/ml in 10 mM acetate pH 4.5) in the horizontal direction for 300 sec at a flowrate of 30 μl/min resulting in about 4370-4875 response units (RUs) of Protein A/G on the surface. The sensorchip is then deactivated with 1M ethanolamine HCl in the horizontal direction for 300 sec at a flowrate of 30 μl/min. The sensorchip is stabilized with 18 sec of 0.85% phosphoric acid at a flowrate of 100 μl/min 3 times horizontally and 3 times vertically.\n(§2) Each ANGPT2 antibody is captured on the Protein A/G surface vertically for 300 sec at a flowrate of 30 μl/min resulting in a capture level of about 2500 RU. The baseline is stabilized by injecting PBS-T-EDTA for 60 sec at a flowrate of 100 μl/min horizontally with dissociation of 120 sec. The analyte (e.g., HuANGPT2) is injected horizontally over the captured antibody for 300 sec at a flowrate of 30 μl/min and a dissociation for 1800 sec. […] The surface is regenerated by injecting 0.85% phosphoric acid for 18 sec at a flowrate of 100 μl/min one time horizontally and one time vertically. PBS-T-EDTA is injected for 60 sec at a flowrate of 100 μl/min one time vertically and one time horizontally.\n(§3) The interspot (interactions with sensor surface) and blank (PBS-T-EDTA with 0.01% Tween20 or 0 nM of analyte (here HuANGPT2)) are subtracted from the raw data."}, "cynomolgus (cyno) ANGPT2": {"biological_target": "T4, cynomolgus (cyno) ANGPT2 (cynomolgus, UniProt A0A2K5VNX6 275-496)", "T4 construct": "domain: FLD domain; also called cyno ANGPT2 FLD domain", "T4 sequence": "T3 sequence (looked up) with E2G, I23V, F28L, I35V, G154A, A212G, D221G", "test": "SPR (ProteOn XPR36), antibody captured on Protein A/G, ANGPT2 as analyte, 1:1 Langmuir fit", "procedure": "as §1, §2, §3"}, "[3]": {"biological_target": "T5, rhAngiopoietin-2 (R&D systems cat 623-AN/CF) (human, UniProt O15123 19-496, limits assumed)", "T5 sequence (looked up)": "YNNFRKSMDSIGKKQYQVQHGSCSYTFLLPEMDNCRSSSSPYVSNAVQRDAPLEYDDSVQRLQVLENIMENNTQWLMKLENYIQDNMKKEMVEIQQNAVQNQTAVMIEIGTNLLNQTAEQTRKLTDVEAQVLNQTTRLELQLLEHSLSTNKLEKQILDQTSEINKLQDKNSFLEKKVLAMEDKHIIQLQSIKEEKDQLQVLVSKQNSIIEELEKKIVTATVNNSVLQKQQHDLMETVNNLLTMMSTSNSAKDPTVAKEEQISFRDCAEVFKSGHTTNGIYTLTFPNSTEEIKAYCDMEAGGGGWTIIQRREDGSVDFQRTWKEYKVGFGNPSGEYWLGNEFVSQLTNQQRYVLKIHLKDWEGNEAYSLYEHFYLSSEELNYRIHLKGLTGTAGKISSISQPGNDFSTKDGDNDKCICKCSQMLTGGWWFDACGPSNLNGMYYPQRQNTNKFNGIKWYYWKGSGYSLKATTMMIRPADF", "test": "cell-based or functional assay"}}, "note": "Changes are numbered by the printed parent chain. Where “and” joins values, the source holds several entries; their conditions need not be identical. Equal values may be shown once.", "data": [{"binder": "B1", "values": [{"measurement": "Kd", "setting": "rabbit ANGPT2", "result": 0.133, "unit": "nM"}, {"measurement": "EC50", "setting": "[1]", "result": 13, "unit": "nM"}, {"measurement": "Kd", "setting": "[2]", "result": 0.144, "unit": "nM"}, {"measurement": "koff", "setting": "[2]", "result": "1.89e-05", "unit": "s⁻¹"}, {"measurement": "kon", "setting": "[2]", "result": 132000, "unit": "M⁻¹ s⁻¹"}, {"measurement": "Kd", "setting": "cynomolgus (cyno) ANGPT2", "result": 0.146, "unit": "nM"}, {"measurement": "koff", "setting": "cynomolgus (cyno) ANGPT2", "result": "2.08e-05", "unit": "s⁻¹"}, {"measurement": "kon", "setting": "cynomolgus (cyno) ANGPT2", "result": 142000, "unit": "M⁻¹ s⁻¹"}, {"measurement": "Tie2 phosphorylation functional assay, EC50", "setting": "[3]", "result": "4.2 nM and 4 nM"}]}]}
